For data set [1], the target named is T1, P element transposase (delta 2-3) (UniProt Q7M3K2).
T1 sequence: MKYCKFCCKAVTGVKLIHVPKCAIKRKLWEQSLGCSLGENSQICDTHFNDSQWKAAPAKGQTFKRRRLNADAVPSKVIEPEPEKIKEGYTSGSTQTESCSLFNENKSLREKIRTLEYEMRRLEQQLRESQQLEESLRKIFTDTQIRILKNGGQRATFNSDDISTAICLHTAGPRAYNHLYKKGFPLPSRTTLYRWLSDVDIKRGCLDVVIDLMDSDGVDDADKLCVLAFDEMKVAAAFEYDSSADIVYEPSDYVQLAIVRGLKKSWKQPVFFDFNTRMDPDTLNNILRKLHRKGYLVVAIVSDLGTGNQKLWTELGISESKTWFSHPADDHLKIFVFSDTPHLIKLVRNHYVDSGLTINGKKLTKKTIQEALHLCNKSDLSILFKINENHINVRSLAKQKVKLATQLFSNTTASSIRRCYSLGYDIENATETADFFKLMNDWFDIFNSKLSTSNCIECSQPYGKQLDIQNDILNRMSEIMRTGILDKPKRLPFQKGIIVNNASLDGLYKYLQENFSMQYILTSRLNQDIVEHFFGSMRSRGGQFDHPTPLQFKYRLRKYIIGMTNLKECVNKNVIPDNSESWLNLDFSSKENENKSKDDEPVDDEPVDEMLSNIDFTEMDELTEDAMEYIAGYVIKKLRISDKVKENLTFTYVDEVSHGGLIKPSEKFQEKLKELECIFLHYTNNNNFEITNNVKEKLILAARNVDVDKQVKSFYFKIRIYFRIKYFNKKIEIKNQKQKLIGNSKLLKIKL
In words: cell_activity. The conditions noted are these: germline remobilization in Drosophila, delta 2-3 at 99B.

Data set [2] has as its system piggyBac transposase. In words: cell_activity. Particulars: germline remobilization rate in Drosophila with constitutive transposase; TTAA target; 10% with heat shock helper.

In turn, XP (P element) transposon had an activity in data set [1] of 50%.

Regarding piggyBac transposon pB[w+], the activity in data set [2] stood at 60%.

Source of the values: US20050229265.
